Measured values reported in patent US20240025956A1 (MIYAGI PREFECTURAL HOSPITAL ORGANIZATION, published 2024).

Tests used:
mouse IL-2 receptor α [1] = biological target: T1, mouse IL-2 receptor α (mouse, UniProt P01590 22-268); experiment: NanoLuc on-cell binding, mouse IL-2Rα-expressing 293T, ratio 293Ta/293T, 10 nM
T1 construct: whole, on cells; also called mouse IL-2Rα; CD25
T1 sequence (looked up): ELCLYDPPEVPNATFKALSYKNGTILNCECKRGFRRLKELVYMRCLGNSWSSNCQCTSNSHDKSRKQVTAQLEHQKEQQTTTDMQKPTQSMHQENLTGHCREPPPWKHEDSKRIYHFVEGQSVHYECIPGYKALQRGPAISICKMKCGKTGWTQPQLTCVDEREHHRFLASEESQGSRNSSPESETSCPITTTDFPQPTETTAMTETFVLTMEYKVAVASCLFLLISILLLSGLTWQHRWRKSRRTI
Experimental: (§1) Next, IL-2 receptor α binding capability on cells (on-cell receptor binding) was measured. Specifically, 293T cells were obtained from the RIKEN Cell Bank (RCB2202). Human and mouse IL-2 receptor α-expressing 293T (293Ta) was established as cells stably expressing the IL-2 receptor α in 293T through use of lentiviral vectors (pSIN-EF-RfA2-1-human IL-2Ra and pSIN-EF-RfA2-1-mouse IL-2Ra) constructed respectively with human and mouse IL-2 receptor α-chain genes (NCBI Reference Sequence: NM_000417.2 and NM_008367.3) as cassettes. 293T and human or mouse 293Ta were allowed to adhere to a 24 wel cell culture plate (Techno Plastic Products AG, #92424). After that, a suspension (10 nM) of NanoLuc (trademark) luciferase sequence (Promega Corporation, USA)-fused mature stable mutant human MK-4-IL-2 (MK-4, pcDNA4-MK-4-NLuc, corresponding to a comparative example), mature stable mutant human MK-6-IL-2 (MK-6, pcDNA4-MK-6-NLuc), mature stable mutant human IL-2 (MK-14, pcDNA4-MK-14-NLuc, IL-2 positive control), or mature stable mutant human MK-15-IL-2 (MK-15, pcDNA4-MK-15-NLuc) was added, and the mixture was subjected to a reaction by being left at rest at 4° C. for 1 hour. The cells were washed, followed by quantification. The binding capability of mutant IL-2 for the α-subunit is shown as a numerical value for a ratio between amounts bound to 293Ta and 293T (293Ta/293T). […]

human IL-2 receptor α = biological target: T2, human IL-2 receptor α (human, UniProt P01589 22-272); experiment: NanoLuc on-cell binding, human IL-2Rα-expressing 293T, ratio 293Ta/293T
T2 construct: whole, on cells; also called IL-2Rα; CD25
T2 sequence (looked up): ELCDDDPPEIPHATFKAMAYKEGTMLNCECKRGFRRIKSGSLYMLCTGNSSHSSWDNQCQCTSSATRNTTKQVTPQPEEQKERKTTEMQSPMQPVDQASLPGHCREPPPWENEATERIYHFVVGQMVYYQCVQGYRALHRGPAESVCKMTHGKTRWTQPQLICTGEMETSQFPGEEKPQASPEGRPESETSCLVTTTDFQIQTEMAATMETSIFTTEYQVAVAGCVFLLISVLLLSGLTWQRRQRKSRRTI
Experimental: as §1

mouse IL-2 receptor α [2] = biological target: T1, mouse IL-2 receptor α; experiment: NanoLuc on-cell binding, mouse IL-2Rα-expressing 293T, ratio 293Ta/293T
Experimental: as §1

B1: NanoLuc luciferase sequence-fused mature stable mutant human MK-4-IL-2 (ligand, not shown: large carriers)
chain: APASSSTKKTQLQLEHLLLDLQMILNGINNYKNPALTAMLTFKFYMPKKATELKHLQCLEEELKPLEEVLNLAQSKNFHLRPRDLISNINVIVLELKGSETTFMCEYADETATIVEFLNRWITFAQSIISTLT
notes: also called pcDNA4-MK-4-NLuc
- binding result (mouse IL-2 receptor α [1]): binds

B2: NanoLuc luciferase sequence-fused mature stable mutant human MK-6-IL-2 (ligand, not shown: large carriers)
chain: APASSSTKKTQLQLEHLLLDLQMILNGINNYKNPALTAMLTFAFAMPKKATELKHLQCLEEELKPLEEVLNLAQSKNFHLRPRDLISNINVIVLELKGSETTFMCEYADETATIVEFLNRWITFAQSIISTLT
notes: also called pcDNA4-MK-6-NLuc
- binding result (human IL-2 receptor α): no binding (tested: 10 nM)

B3: NanoLuc luciferase sequence-fused mature stable mutant human MK-15-IL-2 (ligand, not shown: large carriers)
chain: APASSSTKKTQLQLEHLLLDLQMILNGINNYKNPALTAMLTAKFAMPKKATELKHLQCLEEELKPLEEVLNLAQSKNFHLRPRDLISNINVIVLELKGSETTFMCEYADETATIVEFLNRWITFAQSIISTLT
notes: also called pcDNA4-MK-15-NLuc
- binding result (human IL-2 receptor α): no binding (tested: 10 nM)
- binding result (mouse IL-2 receptor α [2]): no binding (tested: 10 nM)
